Experimental findings from publication PMC2248580 (BMC Structural Biology, 2007) are described below.

The assay has as its target T1, human activated blood coagulation factor X (FXa) (human).
T1 construct: also called factor Xa; Stuart factor
Description: SPR; […]; 37°C; HBS (10 mM Hepes, 150 mM NaCl, 5 mM CaCl2, 0.005% P20, pH 7.4); Langmuir fit; […]. To be noted: both partners purified. A general note: Surface plasmon resonance follows binding to a sensor surface in real time, without labels.

T1 sequence (P00742 whole entry): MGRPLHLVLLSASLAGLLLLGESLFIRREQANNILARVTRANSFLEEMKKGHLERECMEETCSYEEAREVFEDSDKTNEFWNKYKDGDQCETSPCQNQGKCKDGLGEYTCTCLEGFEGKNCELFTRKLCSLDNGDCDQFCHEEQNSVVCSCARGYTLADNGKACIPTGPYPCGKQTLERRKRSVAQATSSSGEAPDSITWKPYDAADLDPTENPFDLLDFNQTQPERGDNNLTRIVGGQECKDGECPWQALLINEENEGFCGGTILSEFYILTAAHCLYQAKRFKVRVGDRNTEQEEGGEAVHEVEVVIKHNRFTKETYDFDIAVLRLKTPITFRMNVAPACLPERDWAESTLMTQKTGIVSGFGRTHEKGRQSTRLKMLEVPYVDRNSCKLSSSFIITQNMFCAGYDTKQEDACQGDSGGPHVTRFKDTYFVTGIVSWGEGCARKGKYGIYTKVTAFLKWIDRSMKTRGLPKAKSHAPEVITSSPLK

B1: Vbb, the PLA2 from Vipera berus berus venom (enzyme)
chain: NLFQFGNMINHMVGKHAVWSYLSYGCYCGWGGQGKPQDATDRCCFVHDCCYGRANGCDPKLSTYSYNFQNGNIVCGNKYGCLRHICECDRVAAICFQKNMNTYNKKYKNYSSSNCQENSDKC
modifications: γ-carboxyglutamic acid in the Gla domain (residues 1–39)
By Kd is commonly meant the constant that tells how readily two partners part at equilibrium. Broadly, the koff is the rate constant with which the complex falls apart. Low readings indicate slow dissociation, high ones fast dissociation. The kon is a measure of how fast the partners come together. A low value points to slower complex formation. As for B1, the Kd worked out at 830 ± 15 nM, the koff is 0.025 s⁻¹ and the kon was determined as 30000 M⁻¹ s⁻¹.

B2: VRV-PLVIII, the PLA2 from Daboia russelli pulchella venom (enzyme)
chain: SLLEFGKMILEETGKLAIPSYSSYGCYCGWGGKGTPKDATDRCCFVHDCCYGNLPDCNPKSDRYKYKRVNGAIVCEKGTSCENRICECDKAAAICFRQNLNTYSKKYMLYPDFLCKGELKC
Molecule B2 came in with a Kd of 578 ± 15 nM, a koff of 0.026 s⁻¹ and a kon of 45000 M⁻¹ s⁻¹.
